# Laboratory results taken from patent US20070016969A1.
# Target: Bovine thrombin (Sigma) (bovine) (UniProt P00735)
# Experiment: cell-based or functional assay
Substance,"amount of culture medium at which there is no coagulation (plasma coagulation, A405)",amount of culture medium needed for the anti-coagulation reaction at the A405 reading of 0.05,"amount of homogeneous extract of mammary gland cells at which there is no coagulation (plasma coagulation, A405)",amount of homogeneous extract of mammary gland cells needed for the anti-coagulation reaction at the A405 reading of 0.05,"amount at which there is almost no coagulation (plasma coagulation, A405)",amount needed for the anti-coagulation reaction at the A405 reading of 0.05
"hirudin encoded by the full-length DNA fragment Hi (SEQ ID NO: 17), expressed from pE-αLA-Hi in NMuMG mammary gland cells (from UniProt P01050 1-65)",10 µL,0.95 µL,0.25 mg,0.056 mg,–,–
commercially available nature hirudin (Sigma) (from UniProt P01050 1-65),–,–,–,–,0.16 pmol,0.52 pmol
